{"source": "patent US20030032157A1", "about": "“Polypeptides interactive with Bcl-XL” (priority 2001, published 2003)", "molecules": {"B1": {"name": "clone x42 (cDNA FLJ23277, Clone HEP03322) (peptide)", "chain": "NGNLFASFIADS", "notes": "mRNA display clone from a hypothetical or unknown polypeptide"}, "B2": {"name": "SEQ ID NO 224 (peptide)", "chain": "KYQQLFEDIRW", "notes": "Second selection; clone from a known polypeptide"}, "B3": {"name": "SEQ ID NO 227 (peptide)", "chain": "MGDVVGFIDELEGAVSDLHRAL", "notes": "Second selection; clone from a hypothetical or unknown polypeptide"}, "B4": {"name": "SEQ ID NO 228 (peptide)", "chain": "TLRHWGLQFNTRFGV", "notes": "as for B3"}, "B5": {"name": "SEQ ID NO 6 (peptide)", "chain": "GGESDTDPHFQDALMQLAKAVASAAAALVLKAKSVAQR", "notes": "mRNA display clone from a known polypeptide"}, "B6": {"name": "SEQ ID NO 33 (peptide)", "chain": "ALSWIEMDTEMEMLLARFRRTPGDLHLDHSVHLCAHP", "notes": "as for B1"}, "B7": {"name": "proline/glutamine rich splicing factor cluster polypeptide (peptide)", "chain": "RGLWVDRVLEEWGLEPRQ", "notes": "Selected clone translated from the incorrect reading frame of the parent mRNA; not further characterized"}, "B8": {"name": "SEQ ID NO 12 (peptide)", "chain": "MKWDTDNTLGTEISWENKLAEGLKLTLDTIFVHHVLHAPH", "notes": "as for B5"}, "B9": {"name": "Talin (splice variant), clone X56 (peptide)", "peptide": "GGESDTDPHFQDALMQLAKAVASAAAALVLKAKSVAQR-{FLAG‑M2 epitope}", "modifications": "also: 35S-Met labelled in vitro translation product", "notes": "fragment limits not in text; also called selected Talin fragment"}, "B10": {"name": "Bcl-2 related protein BPR, clone Y75 (peptide)", "peptide": "TGKEAILRRLVALLEEEAEVINQKLASDPALRSKLVRLSSDSFAHL", "notes": "also called Bcl-2 related proline-rich protein BPR"}, "B11": {"name": "Novel protein D, clone T25 (peptide)", "peptide": "GTRISDMLKLIADTWQRNCCPA-{FLAG‑M2 epitope}", "modifications": "cysteine pairing not given here; also: 35S-Met labelled in vitro translation product"}}, "key": {"[1]": {"molecular_target": "T1, Bcl-XL-GST fusion protein (Homo sapiens, UniProt Q07817)", "T1 construct": "made in house; host or cells: E. coli BL21 (DE3) pLysS", "T1 sequence (Q07817 1-211)": "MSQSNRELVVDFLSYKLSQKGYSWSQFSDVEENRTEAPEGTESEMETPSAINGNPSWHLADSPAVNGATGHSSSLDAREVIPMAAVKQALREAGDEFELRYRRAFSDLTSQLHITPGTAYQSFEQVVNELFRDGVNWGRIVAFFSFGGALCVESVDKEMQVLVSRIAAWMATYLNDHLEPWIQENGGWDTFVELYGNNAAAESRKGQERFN", "test": "Free purified polypeptide binding to Bcl-XL-GST fusion protein (additional selection, FIG. 9)", "conditions": "purified free polypeptides", "experimental": "Detection of a polypeptide binding to a Bcl-XL-glutathione S-transferase (GST) fusion protein was carried out as follows. Twenty microliters of glutathione Sepharose 4B slurry (AP Biotech) was aliquoted to a microcentrifuge tube and washed with PBS. The Bcl-XL-GST fusion protein (60 μg), prepared as describe above, was added and allowed to bind to the Sepharose beads for 1 hr at 4° C. The beads were then re-washed in selection buffer (50 mM Tris-HCL pH 7.5, 150 mM KCl, 0.05% Triton X-100, 0.5 mg/ml BSA, and 0.1 mg/ml salmon sperm DNA). The Bcl-XL-GST beads were resuspended in 100 μl of selection buffer (approximately 11.5 μM Bcl-XL) and ^35S-labeled mRNA display construct or free peptide was added (approximately 10-60 nM) and incubated on a rotator for 1 hr at 4° C. The reaction was then transferred to a microcentrifuge column (BioRad) and unbound mRNA display constructs or free peptides were removed by a 10 sec spin at 1,000 rpm. The Sepharose beads were then washed three times with 500 μl of selection buffer. The extent of binding between the Bcl-XL-GST fusion protein and the mRNA display constructs or free peptides was determined by scintillation counting each fraction, including the recovered beads. […]"}, "[2]": {"molecular_target": "T2, BH3 domain binding site on Bcl-XL (Homo sapiens, UniProt Q07817)", "T2 construct": "made in house; host or cells: E. coli BL21 (DE3) pLysS", "T2 sequence (Q07817 1-211)": "as above", "test": "Competition assay with Bak BH3 domain peptide in the Bcl-XL binding assay", "conditions": "20 μM Bak BH3 competitor (SEQ ID NO: 152); 100 μM for some polypeptides", "experimental": "(§1) Only three of the selected proteins (Bim, Bak, and Bax) were previously known to contain a BH3 domain. In order to determine if the other proteins bound to the BH3 domain binding site on Bcl-XL, a competition assay was performed. The Bak BH3 domain peptide used as a positive control was prepared by chemical synthesis and used to compete with individual Bcl-XL-binding polypeptides in a Bcl-XL binding assay. […] At a fixed concentration of immobilized Bcl-XL, the Bak BH3 domain-containing peptide […] (SEQ ID NO: 152), also containing a FLAG-M2 epitope, was added at the indicated concentration along with a trace amount of a selected Talin fragment. After binding for 1 hour, the unbound material was removed and the bound protein was quantitated. The bound protein was assayed by scintillation counting, normalized to that bound in the absence of competitor, and plotted versus competitor concentration.\nA competition assay was performed for each of the selected Bcl-XL-binding polypeptides using 20 μM Bak BH3 competitor based on the titration shown in FIG. 6. Due to poor competition with the Bcl-XL-binding polypeptides having the lowest Kd values (as determined above) a second competition was performed for some of these polypeptides using 100 μM competitor (FIG. 3A)."}, "[3]": {"molecular_target": "T3, human Bcl-XL-GST fusion protein (human, UniProt P08515 1-218 = GST; Q07817 1-211)", "T3 construct": "Made in E. coli, immobilized on glutathione Sepharose beads; whole entry named; also called Bcl-XL-glutathione S-transferase (GST) fusion protein; GST-BCL-XL", "T3 sequence (P08515 1-218, tags or fused parts left off)": "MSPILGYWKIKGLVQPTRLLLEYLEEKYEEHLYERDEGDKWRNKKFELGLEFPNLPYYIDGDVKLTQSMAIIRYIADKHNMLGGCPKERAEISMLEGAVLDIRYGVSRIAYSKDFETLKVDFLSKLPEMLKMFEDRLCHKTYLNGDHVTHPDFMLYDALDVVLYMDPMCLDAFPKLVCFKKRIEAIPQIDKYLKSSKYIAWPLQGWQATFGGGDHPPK", "test": "mRNA display selection on immobilized Bcl-XL-GST; cluster found among sequenced clones"}, "[4]": {"molecular_target": "T3, human Bcl-XL-GST fusion protein", "test": "second mRNA display selection on immobilized Bcl-XL-GST"}, "[5]": {"molecular_target": "T3, human Bcl-XL-GST fusion protein", "test": "free peptide on immobilized Bcl-XL-GST with Bak BH3 competitor", "experimental": "as §1\nA competition assay was performed for each of the selected Bcl-XL-binding polypeptides using 20 μM Bak BH3 competitor based on the titration shown in FIG. 6."}, "[6]": {"molecular_target": "T3, human Bcl-XL-GST fusion protein", "test": "35S-labeled free peptide on Bcl-XL-GST beads, target concentration varied, scintillation counting; relative Kd", "experimental": "Detection of a polypeptide binding to a Bcl-XL-glutathione S-transferase (GST) fusion protein was carried out as follows. Twenty microliters of glutathione Sepharose 4B slurry (AP Biotech) was aliquoted to a microcentrifuge tube and washed with PBS. The Bcl-XL-GST fusion protein (60 μg), prepared as describe above, was added and allowed to bind to the Sepharose beads for 1 hr at 4° C. The beads were then re-washed in selection buffer (50 mM Tris-HCL pH 7.5, 150 mM KCl, 0.05% Triton X-100, 0.5 mg/ml BSA, and 0.1 mg/ml salmon sperm DNA). The Bcl-XL-GST beads were resuspended in 100 μl of selection buffer (approximately 11.5 μM Bcl-XL) and ³⁵S-labeled mRNA display construct or free peptide was added (approximately 10-60 nM) and incubated on a rotator for 1 hr at 4° C. The reaction was then transferred to a microcentrifuge column (BioRad) and unbound mRNA display constructs or free peptides were removed by a 10 sec spin at 1,000 rpm. The Sepharose beads were then washed three times with 500 μl of selection buffer. The extent of binding between the Bcl-XL-GST fusion protein and the mRNA display constructs or free peptides was determined by scintillation counting each fraction, including the recovered beads.\nPurified radioactively labeled protein from the individual clones was incubated with immobilized Bcl-XL-GST for one hour and, after washing, the amount bound was determined by scintillation counting. The binding at each concentration was normalized to that at the highest concentration and plotted versus concentration. FIG. 5 is a representational plot of the results of this binding assay. A selected Bak fragment ([…]; SEQ ID NO: 152), containing a FLAG-M2 epitope, was synthetically produced as a free protein and used in a binding assay in which the concentration of immobilized Bcl-XL-GST was varied from 11 nM to 28 μM. The amount of peptide bound to Bcl-XL was determined by scintillation counting and normalized to that bound at the highest concentration. Normalized binding was then plotted versus Bcl-XL concentration and fit to a binding curve using nonlinear regression. […] However, only binding curves that gave a high correlation coefficient ® value) were used to determine an affinity."}}, "note": "Where no end group is shown, it is not given here."}
{"molecule": "Bmf: selected Bmf polypeptide of the additional selection, purified free polypeptide (KAEVQIARKLQCIADQFHRLHVL)", "values": [{"measurement": "Binding to the Bcl-XL-GST fusion protein", "setting": "[1]", "result": 6, "unit": "%"}]}
{"molecule": "t53: selected Bcl-XL-binding polypeptide, SEQ ID NO: 25 (LDPVKDVLILSALRRMLWAADDFLEDLPFEQIG; listed as Homo sapiens)", "values": [{"measurement": "competition by Bak BH3 domain (BakBH3 effect), bound normalized to reaction without competitor", "setting": "[2]", "result": "not competed at all"}]}
{"molecule": "w75: selected Bcl-XL-binding polypeptide, SEQ ID NO: 37 (RTLQPRLLQNQQQHLPALPIWFLLQWLRLHPL; listed as Homo sapiens)", "values": [{"measurement": "competition by Bak BH3 domain (BakBH3 effect), bound normalized to reaction without competitor", "setting": "[2]", "result": "not competed at all"}]}
{"molecule": "x42: selected polypeptide, SEQ ID NO: 35; cDNA FLJ23277, Clone HEP03322 (Table 1) (NGNLFASFIADS)", "values": [{"measurement": "competition by Bak BH3 domain (BakBH3 effect), bound normalized to reaction without competitor", "setting": "[2]", "result": "not competed at all"}]}
{"molecule": "B1", "values": [{"measurement": "binding result", "setting": "[3]", "result": "binds"}]}
{"molecule": "B2", "values": [{"measurement": "binding result", "setting": "[4]", "result": "binds"}]}
{"molecule": "B3", "values": [{"measurement": "binding result", "setting": "[4]", "result": "binds"}]}
{"molecule": "B4", "values": [{"measurement": "binding result", "setting": "[4]", "result": "binds"}]}
{"molecule": "SRREEAWDALFRGI (Second selection)", "note": "[SEQ ID NO 229]", "values": [{"measurement": "binding result", "setting": "[4]", "result": "binds"}]}
{"molecule": "TLREIGDLYLTSILGRR (Second selection)", "note": "[SEQ ID NO 230]", "values": [{"measurement": "binding result", "setting": "[4]", "result": "binds"}]}
{"molecule": "B5", "values": [{"measurement": "binding result", "setting": "[5]", "result": "binds"}]}
{"molecule": "B6", "values": [{"measurement": "binding result", "setting": "[5]", "result": "binds"}]}
{"molecule": "B7", "values": [{"measurement": "binding result", "setting": "[3]", "result": "binds"}]}
{"molecule": "B8", "values": [{"measurement": "binding result", "setting": "[5]", "result": "binds"}]}
{"molecule": "ASMRQAEPADMRPEIWIAQELRRIGDEFNAYYARE (fragment limits not in text)", "note": "[Bim, clone T44]", "values": [{"measurement": "Kd", "setting": "[6]", "result": 2, "unit": "nM"}]}
{"molecule": "QRGMLYYQTEKYDLAIKDLKEALIQLRGNN (fragment limits not in text)", "note": "[Neutrophil cytosolic factor 2, clone T95]", "values": [{"measurement": "Kd", "setting": "[6]", "result": 4.16, "unit": "nM"}]}
{"molecule": "IAQATKATIDKWNCIKLKIFYTSKKEAS-{FLAG‑M2 epitope} (also: 35S-Met labelled in vitro translation product)", "note": "[Novel protein I, clone C21]", "values": [{"measurement": "Kd", "setting": "[6]", "result": 70, "unit": "nM"}]}
{"molecule": "B9", "values": [{"measurement": "Kd", "setting": "[6]", "result": 93, "unit": "nM"}]}
{"molecule": "GQVGRQLAIIGDDINRRK", "note": "[Bak, clone C32]", "values": [{"measurement": "Kd", "setting": "[6]", "result": 402, "unit": "nM"}]}
{"molecule": "B10", "values": [{"measurement": "Kd", "setting": "[6]", "result": 420, "unit": "nM"}]}
{"molecule": "GTRQDRMFETMAIEIEQLLARLTGVNDKMAEYTNA", "note": "[Golgi SNAP receptor complex member 1, clone V06]", "values": [{"measurement": "Kd", "setting": "[6]", "result": 467, "unit": "nM"}]}
{"molecule": "AVQEDPVQREIHQDWANREYIEIITSSIKKIAD (also called HSCP300)", "note": "[HSPC300, clone C68]", "values": [{"measurement": "Kd", "setting": "[6]", "result": 580, "unit": "nM"}]}
{"molecule": "ATRQALNEISARHSGIQQLERSIRELHDIFTFL", "note": "[Syntaxin 4A, clone U58]", "values": [{"measurement": "Kd", "setting": "[6]", "result": 640, "unit": "nM"}]}
{"molecule": "MFSDIYGIREIADGLCLEVEGKMVSRPE", "note": "[Tumor protein HDCMB21P, clone V50]", "values": [{"measurement": "Kd", "setting": "[6]", "result": 690, "unit": "nM"}]}
{"molecule": "KLSECLKRIGDELDSNMELQRMIAAVDTDSPR (peptide, UniProt Q07812 58-89, looked up)", "note": "[Bax, clone C49]", "values": [{"measurement": "Kd", "setting": "[6]", "result": 760, "unit": "nM"}]}
{"molecule": "FWLEERDFEAGVFELEAIVNSIKRS", "note": "[Toll-like receptor 3, clone U15]", "values": [{"measurement": "Kd", "setting": "[6]", "result": 781, "unit": "nM"}]}
{"molecule": "MKWDTDNTLGTEISWENKLAEGLKLTLDTIFVHHVLHAPH-{FLAG‑M2 epitope} (also: 35S-Met labelled in vitro translation product)", "note": "[Voltage dependent anion channel 3, clone W06]", "values": [{"measurement": "Kd", "setting": "[6]", "result": 1120, "unit": "nM"}]}
{"molecule": "B11", "values": [{"measurement": "Kd", "setting": "[6]", "result": 1610, "unit": "nM"}]}
